Measurements published in patent US9074238B2, “Methods for enhancing neprilysin activity and degrading amyloid-beta peptides and oligomers in a subject with Alzheimer's disease” (ACADEMIA SINICA, priority 2011, dated 2015).
“Also recorded” adds a separate entry of the source. Primed or numbered codes have the meaning given here. *: point of attachment. Alexa‑350 = fluorescent label on the Cys side chain (double-labeled qf-Aβ(1-7)C); Dabcyl′ = CN(C)c1ccc(/N=N/c2ccc(C(=O)*)cc2)cc1

Legend:
[1] = tested on: NEP; test: Screening of compounds for NEP activity of SH-SY5Y cells with qf-Aβ(1-7)C substrate; type: cell-based, human; conditions: 5 μM compound, 24 hr; 2 μM qf-Aβ(1-7)C, 1 h
Protocol: The compound number is indicated on the left of each bar. […] (**, p value<0.001; *, p value<0.01).
Analogs comprising at least three hydroxyl groups attached to the two aromatic rings of the curcumin structure scaffold (Compound 1) were particularly active in enhancing NEP activity.
Human SH-SY5Y cells were cultured in the Dulbecco's modified Eagle's medium (DMEM, Gibco, USA) supplemented with 10% fetal bovine serum (FBS; Biological industries, USA) in 5% CO2 at 37° C. The cells were harvested and re-suspended in the phenol red-free DMEM medium supplemented with 10% FBS at a density of 1×10^6 cells/mL. 100 μL of cell culture was added in each well of a 96-well plate. The compounds (no. 1 to no. 24) were dissolved in DMSO, and the others (no. 25 and no. 26) were dissolved in sterilized water to make the stock solution (1 mM). Each compound was mixed with phenol red-free DMEM supplemented with 10% FBS to a final concentration of 10 μM. 100 μL of the medium containing 10 μM indicated compound was added into the wells to make the final compound concentration 5 μM. After incubation for 24 hr, the medium of the culture was replaced with the phenol red-free DMEM medium (not FBS) containing 2 μM qf-Aβ(1-7)C and incubation continued for additional 1 h. To measure the proteolytic activity, 100 μL of the medium was taken out for fluorescence measurement on SpectraMax Gemini EM (Molecular Devices, USA) with excitation at 346 nm and emission at 442 nm. The average of three replicate wells was used for each sample and control.

[2] = biological target: T1, recombinant human NEP (Homo sapiens, UniProt P08473); test: Fluorogenic enzyme assay, peptide substrate digested by NEP; type: biochemical
T1 construct: purchased R&D Systems (USA)
Protocol: To determine the optimal reaction conditions, 0.92 nM NEP was mixed with different concentrations of qf-Aβ(1-7)C, then, after incubation for 1, 2, 3, or 4 h at 37° C., the peptide-degrading activity of NEP was measured by recording fluorescence emission at 465 nm. The fluorescence intensity increased at least 40-fold with the degradation of the quenched fluorogenic peptide. […] Incubation for 1 h was sufficient for detection. At higher substrate concentrations, the fluorescence intensity was much larger, but the error increased. To test whether the sensitivity of NEP detection was increased when a higher substrate concentration was used, 1.84 μM qf-Aβ(1-7)C was mixed with different concentrations of NEP and reacted at 37° C. for 1, 2, 3, or 4 h and the fluorescence emission at 465 nm measured (FIG. 4). […] The substrate concentration of 1.84 μM or more was therefore used in the following studies.
To determine the optimal substrate concentration in the fluorogenic enzyme assay, NEP (0.5 mg/mL) and substrate peptide qf-Aβ(1-7)C (1 mM) were mixed in 50 mM Tris-HCl (pH 7.5), 25 mM NaCl, 5 μM ZnCl2 to a final NEP concentration of 0.92 nM and peptide concentrations of 0.46, 0.92, 1.84, 3.68, or 7.36 μM and placed on a 96-well plate (Corning, USA). The final volume of the reaction solution was kept as 200 μL. The enzyme reaction was performed in the dark at 37° C. and the fluorescence was measured at 1, 2, 3, and 4 h with excitation at 360 nm and emission at 465 nm on a Paradigm™ Detection Platform (Beckman Coulter, USA) (FIG. 3). […] The enzyme reaction was performed in the dark at 37° C. and the fluorescence was measured at 1, 2, 3, and 4 h. […]
(§1) One commercially available quenched fluorogenic peptide substrate, Dansyl-^DAGF(pNO2)G, was tested for comparison. The fluorescence of dansyl is quenched by the presence of nitrophenyl group. Digestion was monitored by the fluorescence increase of dansyl at 562 nm when excited at 342 nm. […]

[3] = biological target: T2, insulin-degrading enzyme (IDE) (Homo sapiens, UniProt P14735); test: Fluorogenic enzyme assay, peptide substrate digested by IDE; type: biochemical
T2 construct: purchased R&D Systems (USA)
Protocol: (§2) Recombinant human NEP (0.5 mg/mL), insulin-degrading enzyme (IDE) (0.386 mg/mL), endothelin-converting enzyme 1 (ECE-1) (0.298 mg/mL), matrix metalloproteinases (MMP)-3 (0.124 mg/mL) and MMP-9 (0.5 mg/mL), and angiotensin-converting enzyme (ACE) (0.434 mg/mL) were purchased from R&D Systems (USA). Human plasmin (1 mM) was purchased from Sigma (USA). […] MMP-3 and MMP-9 were pre-activated by incubation at 37° C. for 24 h with 1 mM p-aminophenylmercuric acetate. The quenched fluorogenic peptide substrate qf-Aβ(1-7)C (0.4 μL of the 1 mM stock in DMSO) was mixed with different concentrations of enzyme solution (final peptide concentration 2 μM) on a 96-well plate. The final volume of the reaction solution was kept as 200 μL. The mixture was incubated in the dark for 1, 2, 3, or 4 h at 37° C., and then the fluorescence was measured with excitation at 360 nm and emission at 465 nm on a Paradigm™ Detection Platform (Beckman Coulter, USA) (FIG. 5).
The assay system was sensitive enough to detect as low as 0.10 nM NEP. […]
as §1

[4] = biological target: T3, angiotensin-converting enzyme (ACE) (Homo sapiens, UniProt P12821); test: Fluorogenic enzyme assay, peptide substrate digested by ACE; type: biochemical; conditions: 2 μM substrate
T3 construct: purchased R&D Systems (USA)
Protocol: as §2
One commercially available quenched fluorogenic peptide substrate, Dansyl-^DAGF(pNO2)G, was tested for comparison. The fluorescence of dansyl is quenched by the presence of nitrophenyl group. Digestion was monitored by the fluorescence increase of dansyl at 562 nm when excited at 342 nm. […] This substrate also has enzyme specificity. It is sensitive to NEP and ACE (FIG. 8B). […]

[5] = biological target: T4, MMP-3 (Homo sapiens, UniProt P08254); test: Fluorogenic enzyme assay, peptide substrate digested by MMP-3; type: biochemical; conditions: 2 μM substrate
T4 construct: purchased R&D Systems (USA)
Protocol: as §2

[6] = biological target: T5, Human plasmin (Homo sapiens, UniProt P00747); test: Fluorogenic enzyme assay, peptide substrate digested by plasmin; type: biochemical; conditions: 2 μM substrate
T5 construct: Human plasmin (1 mM) was purchased from Sigma (USA); purchased Sigma (USA)
Protocol: as §2

[7] = biological target: T6, endothelin-converting enzyme 1 (ECE-1) (Homo sapiens, UniProt P42892); test: Fluorogenic enzyme assay, peptide substrate digested by ECE-1; type: biochemical; conditions: 2 μM substrate, pH 7.5, 37° C.
T6 construct: purchased R&D Systems (USA)
T6 sequence (P42892 1-770): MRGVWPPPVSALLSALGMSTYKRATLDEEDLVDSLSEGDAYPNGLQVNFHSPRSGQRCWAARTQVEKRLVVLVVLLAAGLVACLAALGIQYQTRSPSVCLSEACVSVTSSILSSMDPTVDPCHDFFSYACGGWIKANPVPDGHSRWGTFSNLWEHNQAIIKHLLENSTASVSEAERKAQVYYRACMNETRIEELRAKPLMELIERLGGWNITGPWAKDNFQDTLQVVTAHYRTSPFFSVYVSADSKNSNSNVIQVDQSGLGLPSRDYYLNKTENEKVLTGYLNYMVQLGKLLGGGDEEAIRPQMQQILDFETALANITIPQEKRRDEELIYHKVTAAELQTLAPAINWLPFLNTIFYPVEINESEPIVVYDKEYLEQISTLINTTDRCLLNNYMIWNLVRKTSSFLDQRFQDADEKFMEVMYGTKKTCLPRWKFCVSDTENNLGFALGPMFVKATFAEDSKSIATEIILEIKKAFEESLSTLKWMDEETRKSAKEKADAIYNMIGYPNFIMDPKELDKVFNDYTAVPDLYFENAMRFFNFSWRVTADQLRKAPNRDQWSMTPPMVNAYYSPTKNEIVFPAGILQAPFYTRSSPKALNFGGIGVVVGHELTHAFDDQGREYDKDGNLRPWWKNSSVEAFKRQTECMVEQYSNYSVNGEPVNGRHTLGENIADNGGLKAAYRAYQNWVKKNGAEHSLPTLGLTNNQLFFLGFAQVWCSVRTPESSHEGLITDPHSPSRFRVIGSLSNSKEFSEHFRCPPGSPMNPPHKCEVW
Protocol: as §2

[8] = biological target: T7, MMP-9 (Homo sapiens, UniProt P14780); test: Fluorogenic enzyme assay, peptide substrate digested by MMP-9; type: biochemical; conditions: 2 μM substrate, pH 7.5, 37° C.
T7 construct: purchased R&D Systems (USA)
Protocol: as §2

T1 sequence (P08473 whole entry): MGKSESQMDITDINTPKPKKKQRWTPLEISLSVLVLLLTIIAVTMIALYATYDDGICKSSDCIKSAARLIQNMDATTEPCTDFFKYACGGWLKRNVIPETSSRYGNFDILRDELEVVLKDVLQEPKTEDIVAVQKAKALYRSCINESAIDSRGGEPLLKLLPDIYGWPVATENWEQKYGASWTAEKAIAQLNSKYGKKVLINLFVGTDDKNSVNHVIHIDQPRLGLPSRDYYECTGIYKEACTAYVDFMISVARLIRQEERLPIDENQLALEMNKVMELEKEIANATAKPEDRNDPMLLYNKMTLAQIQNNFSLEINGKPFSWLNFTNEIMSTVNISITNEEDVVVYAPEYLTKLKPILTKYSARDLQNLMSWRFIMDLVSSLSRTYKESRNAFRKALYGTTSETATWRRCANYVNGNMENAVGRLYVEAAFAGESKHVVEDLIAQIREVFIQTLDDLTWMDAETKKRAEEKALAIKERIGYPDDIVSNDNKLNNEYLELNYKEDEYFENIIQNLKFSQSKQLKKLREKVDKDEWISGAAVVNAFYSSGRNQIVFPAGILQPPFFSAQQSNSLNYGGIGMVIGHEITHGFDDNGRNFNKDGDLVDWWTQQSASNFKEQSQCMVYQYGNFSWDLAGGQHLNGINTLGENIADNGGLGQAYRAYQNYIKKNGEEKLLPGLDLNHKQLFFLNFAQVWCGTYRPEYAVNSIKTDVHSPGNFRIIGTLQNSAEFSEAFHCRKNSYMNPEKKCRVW
T4 sequence (P08254 100-477): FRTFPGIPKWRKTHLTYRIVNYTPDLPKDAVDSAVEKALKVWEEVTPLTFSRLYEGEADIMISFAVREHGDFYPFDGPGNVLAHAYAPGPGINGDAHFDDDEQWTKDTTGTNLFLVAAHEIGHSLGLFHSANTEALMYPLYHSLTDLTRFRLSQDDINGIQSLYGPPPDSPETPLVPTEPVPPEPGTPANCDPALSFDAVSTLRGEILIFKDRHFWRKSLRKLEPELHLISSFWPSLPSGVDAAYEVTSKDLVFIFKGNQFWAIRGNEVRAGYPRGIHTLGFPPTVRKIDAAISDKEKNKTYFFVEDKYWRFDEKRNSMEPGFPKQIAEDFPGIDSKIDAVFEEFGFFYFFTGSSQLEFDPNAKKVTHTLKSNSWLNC
T3 sequence (P12821 30-1306): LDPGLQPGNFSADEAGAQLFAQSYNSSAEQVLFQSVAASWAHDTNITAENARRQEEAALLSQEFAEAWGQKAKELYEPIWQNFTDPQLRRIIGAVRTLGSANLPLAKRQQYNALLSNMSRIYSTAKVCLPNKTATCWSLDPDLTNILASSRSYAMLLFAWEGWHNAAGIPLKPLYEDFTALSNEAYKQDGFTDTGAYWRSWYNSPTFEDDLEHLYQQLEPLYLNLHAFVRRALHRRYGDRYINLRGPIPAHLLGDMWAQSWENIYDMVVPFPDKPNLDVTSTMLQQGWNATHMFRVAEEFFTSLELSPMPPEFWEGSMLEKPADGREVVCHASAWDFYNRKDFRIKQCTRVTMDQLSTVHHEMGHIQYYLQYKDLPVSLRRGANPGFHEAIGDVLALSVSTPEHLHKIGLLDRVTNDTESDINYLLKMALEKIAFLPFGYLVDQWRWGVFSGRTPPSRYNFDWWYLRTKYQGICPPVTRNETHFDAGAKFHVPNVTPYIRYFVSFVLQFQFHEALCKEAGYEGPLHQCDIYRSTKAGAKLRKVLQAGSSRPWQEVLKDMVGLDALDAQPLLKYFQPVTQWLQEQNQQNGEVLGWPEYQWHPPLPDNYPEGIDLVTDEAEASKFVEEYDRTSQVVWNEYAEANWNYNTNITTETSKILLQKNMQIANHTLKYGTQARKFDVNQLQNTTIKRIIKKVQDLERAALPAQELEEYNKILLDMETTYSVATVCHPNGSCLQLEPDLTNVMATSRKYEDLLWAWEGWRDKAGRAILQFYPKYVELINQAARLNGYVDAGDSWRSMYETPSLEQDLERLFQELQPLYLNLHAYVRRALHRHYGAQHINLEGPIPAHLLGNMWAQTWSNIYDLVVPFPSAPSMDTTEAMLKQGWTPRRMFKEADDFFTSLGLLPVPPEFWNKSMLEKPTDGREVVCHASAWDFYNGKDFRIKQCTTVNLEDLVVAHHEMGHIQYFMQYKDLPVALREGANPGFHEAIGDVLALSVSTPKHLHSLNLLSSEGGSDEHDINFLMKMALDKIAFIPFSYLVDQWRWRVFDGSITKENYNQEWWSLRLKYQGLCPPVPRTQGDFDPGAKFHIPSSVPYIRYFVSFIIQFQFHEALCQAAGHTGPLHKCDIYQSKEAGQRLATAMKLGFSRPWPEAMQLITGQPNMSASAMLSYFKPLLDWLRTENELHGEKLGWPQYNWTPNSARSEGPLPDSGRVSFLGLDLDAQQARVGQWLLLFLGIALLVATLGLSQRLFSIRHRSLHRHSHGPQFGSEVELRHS
T5 sequence (P00747 581-810 limits assumed): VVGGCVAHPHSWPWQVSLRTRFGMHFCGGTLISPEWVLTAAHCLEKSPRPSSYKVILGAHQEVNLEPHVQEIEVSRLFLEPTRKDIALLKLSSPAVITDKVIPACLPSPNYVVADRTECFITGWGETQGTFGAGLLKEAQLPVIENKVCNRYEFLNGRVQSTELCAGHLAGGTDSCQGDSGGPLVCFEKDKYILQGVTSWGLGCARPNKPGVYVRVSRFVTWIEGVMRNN
T5 sequence (P00747 97-580 partner limits assumed): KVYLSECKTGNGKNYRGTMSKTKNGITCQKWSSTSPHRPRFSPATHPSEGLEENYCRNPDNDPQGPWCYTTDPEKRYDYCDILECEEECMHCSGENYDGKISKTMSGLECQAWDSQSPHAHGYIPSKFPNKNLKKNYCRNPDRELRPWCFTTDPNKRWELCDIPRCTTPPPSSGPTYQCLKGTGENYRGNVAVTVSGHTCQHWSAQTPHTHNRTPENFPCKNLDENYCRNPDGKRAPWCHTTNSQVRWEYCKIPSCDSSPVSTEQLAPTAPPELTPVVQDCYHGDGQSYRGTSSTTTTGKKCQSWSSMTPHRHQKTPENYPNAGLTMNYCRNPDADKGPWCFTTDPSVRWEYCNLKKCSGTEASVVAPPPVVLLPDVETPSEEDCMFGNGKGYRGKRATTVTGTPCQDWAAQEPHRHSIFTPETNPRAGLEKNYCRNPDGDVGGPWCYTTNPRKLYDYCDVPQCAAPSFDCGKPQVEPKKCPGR
T7 sequence (P14780 107-707 limits assumed): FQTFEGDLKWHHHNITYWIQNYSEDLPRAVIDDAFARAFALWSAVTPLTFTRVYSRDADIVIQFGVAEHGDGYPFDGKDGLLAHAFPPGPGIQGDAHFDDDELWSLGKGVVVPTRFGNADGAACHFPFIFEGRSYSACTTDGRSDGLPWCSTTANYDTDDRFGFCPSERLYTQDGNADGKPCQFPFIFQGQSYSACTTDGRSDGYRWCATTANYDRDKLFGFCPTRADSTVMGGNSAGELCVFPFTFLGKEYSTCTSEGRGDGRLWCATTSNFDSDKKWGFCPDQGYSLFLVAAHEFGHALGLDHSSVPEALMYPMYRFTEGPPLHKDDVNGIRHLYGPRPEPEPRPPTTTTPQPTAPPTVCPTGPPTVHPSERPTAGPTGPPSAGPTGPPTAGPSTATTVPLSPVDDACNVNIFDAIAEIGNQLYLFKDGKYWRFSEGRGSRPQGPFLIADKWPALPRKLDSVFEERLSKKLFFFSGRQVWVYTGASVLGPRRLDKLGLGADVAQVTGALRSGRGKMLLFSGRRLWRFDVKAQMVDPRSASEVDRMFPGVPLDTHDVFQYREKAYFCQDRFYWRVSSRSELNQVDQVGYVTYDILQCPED

For `COc1cc(C=CC(=O)CC(=O)C=Cc2ccc(O)c(O)c2)ccc1O` [Compound 7, 1-(3,4-Dihydroxyphenyl)-7-(3-methoxy-4-hydroxyphenyl)-1,6-heptadiene-3,5-dione], the “NEP activity of human SHSY5Y cells treated with compound (effect in words)” value (“NEP activity … (effect in words)” below) [1] was “largely enhanced NEP activity; also recorded: large enhancements of NEP activity”.

For `O=C(C=Cc1ccc(O)c(O)c1)CC(=O)C=Cc1ccc(O)c(O)c1` [Compound 8, 1,7-Bis(3,4-dihydroxyphenyl)-1,6-heptadiene-3,5-dione], the “NEP activity … (effect in words)” value [1] was “largely enhanced NEP activity; also recorded: large enhancements of NEP activity”.

For `COc1cc(C=CC(=O)CC(=O)C=Cc2cc(O)c(O)c(OC)c2)cc(O)c1O` [Compound 10, 1,7-Bis(3,4-dihydroxy-5-methoxyphenyl)-1,6-heptadiene-3,5-dione], the “NEP activity … (effect in words)” value [1] was “largely enhanced NEP activity; also recorded: large enhancements of NEP activity”.

`COc1ccc2ccccc2c1C=CC(=O)CC(=O)C=Cc1c(OC)ccc2ccccc12` [Compound 14, 1,7-Bis(2-methoxy-1-naphthyl)-1,6-heptadiene-3,5-dione] was tested, and the “NEP activity … (effect in words)” value [1] was “decreased NEP activity” and the “decrease of NEP activity” value [1] was roughly 20%.

For `O=C(C=Cc1ccc(O)cc1)CC(=O)C=Cc1ccc(O)c(O)c1` [Compound 20, 1-(3,4-dihydroxyphenyl)-7-(4-hydroxyphenyl)-1,6-heptadiene-3,5-dione], the “NEP activity … (effect in words)” value [1] was “largely enhanced NEP activity; also recorded: large enhancements of NEP activity”.

For “qf-Aβ(1-7)C: Peptide DAEFRHDC, Aβ residues 1-7 plus C-terminal Cys, with Alexa-350 on the Cys side-chain and Dabcyl quencher at the N-terminus ({Dabcyl′}-DAEFRHDC(Alexa‑350)-OH)”, the “lowest substrate concentration at which 0.92 nM NEP could be detected” value ([2]; 0.92 nM NEP, 37° C.) was 0.46 µM, the “fluorescence intensity increase with degradation of the quenched fluorogenic peptide” value ([2]; 0.92 nM NEP, 37° C., emission at 465 nm) was “at least 40 fold” and the “cleavage of the quenched fluorogenic peptide by NEP” value ([2]; 2 μM substrate, pH 7.5, 37° C.) was “effective”. For the same compound, the “cleavage of the quenched fluorogenic peptide by IDE” value ([3]; 2 μM substrate, pH 7.5, 37° C.) was “effective”, the “lowest IDE concentration detected” value ([3]; 37° C., 1 h) was 0.2 nM and the “fluorescence increase after digestion with ACE” value ([4]; 1-h digestion) was “no significant fluorescence increase”. For the same compound, the “fluorescence increase after incubation with ACE” value ([4]; 3 h) was “very weak fluorescence increase”, the “fluorescence increase after digestion with MMP-3” value ([5]; 1-h digestion) was “no significant fluorescence increase” and the “fluorescence increase after incubation with MMP-3” value ([5]; 3 h) was “very weak fluorescence increase”. The “fluorescence increase after digestion with plasmin” value ([6]; 1-h digestion) was “no significant fluorescence increase”, the “sensitivity of the system to plasmin” value ([6]; pH 7.5, 37° C.) was “much less sensitive” and the “sensitivity of the system to ECE-1” value [7] was “insensitive; also recorded: much less sensitive”. The “sensitivity of the system to MMP-9” value [8] was “insensitive; also recorded: much less sensitive”.
